Measurements as given in PMC12595441, “Glycosaminoglycans activate peptidylarginine deiminase 4 by enhancing calcium affinity” (Proceedings of the National Academy of Sciences of the …, 2025).

Tests used:
heparin [1] = assay: SPR; settings: immobilized heparin
heparin [2] = assay: heparin activation assay with BAEE substrate, Hill equation fit (apparent KD); settings: 0.1 mM Ca2+
heparin [3] = assay: heparin column chromatography (Poros heparin), salt gradient; settings: gradient of 2 M NaCl; parent: est. 31 min; read off a plot
[4] = biological target: the molecule itself; assay: SEC; analytical SEC without heparin, Superdex 200 Increase 3.2/300, protein at 0.15 µM, 50 mM Tris pH 7.5, 300 mM NaCl, 0.1 mM CaCl2, 0.05% Tween20, 0.25 mM DTT; tryptophan fluorescence; compared with HMW calibration standards
[5] = biological target: the molecule itself; assay: SEC; analytical SEC in the presence of 5 µM heparin, Superdex 200 Increase 3.2/300, protein at 0.15 µM, 50 mM Tris pH 7.5, 300 mM NaCl, 0.1 mM CaCl2, 0.05% Tween20, 0.25 mM DTT; tryptophan fluorescence

Molecule | Kd (heparin [1]) [nM] | koff (heparin [1]) | kon (× 10^4 M^-1s^-1) (heparin [1]) | response (heparin [1]) [RU] | Kd (heparin [2]) [nM] | other: peak elution time from heparin column (heparin [3]) [min] | stoichiometry N [4] | stoichiometry N [5] | binding result [5]
peptidylarginine deiminase 4 (PAD4), recombinant human, wild type (from UniProt Q9UM07) R8E; Y435A | 15.5 | 4.5 × 10^-4 | 3 | 802 | – | – | – | – | –
peptidylarginine deiminase 4 (PAD4), recombinant human, wild type (from UniProt Q9UM07) K126S; K128S; R131S; K134S; R137S | 13.5 | 3.9 × 10^-4 | 3.1 | – | 7.5 | – | – | – | –
peptidylarginine deiminase 4 (PAD4), recombinant human, wild type (from UniProt Q9UM07) R8E | 15.7 | 4.2 × 10^-4 | 2.6 | 659 | 13.5 | – | – | – | –
peptidylarginine deiminase 4 (PAD4), recombinant human, wild type (from UniProt Q9UM07) K59S; K60S; K61S; K81S; K91S | 11.8 | 6.7 × 10^-4 | 5.6 | – | 6.1 | – | – | – | –
peptidylarginine deiminase 4 (PAD4), recombinant human, wild type (from UniProt Q9UM07) Y435A | 16.6 | 4.5 × 10^-4 | 2.8 | 786 | 13.3 | – | – | – | –
peptidylarginine deiminase 4 (PAD4), recombinant human, wild type (from UniProt Q9UM07) R123S; K126S; K128S | 14.4 | 4.6 × 10^-4 | 3 | 328 | 6.2 | 29 | – | – | –
PAD4^59/60/61/81/91 (K59S K60S K61S K81S K91S) (enzyme, human, UniProt Q9UM07 1-663, looked up, Full length human PAD4 (GenBank NM_012387) with K59S K60S K61S K81S K91S; source: E. coli BL21(DE3), purified (HisTrap FF, HiTrap Heparin HP, Superdex 200 SEC)) MAQGTLIRVTPEQPTHAVCVLGTLTQLDICSSAPEDCTSFSINASPGVVVDIAHGPPASSSSTGSSTWPLDPGVEVTLTMSVASGSTGDQSVQISYYGPKTPPVKALLYLTGVEISLCADITRTGKVKPTRAVKDQRTWTWGPCGQGAILLVNCDRDNLESSAMDCEDDEVLDSEDLQDMSLMTLSTKTPKDFFTNHTLVLHVARSEMDKVRVFQATRGKLSSKCSVVLGPKWPSHYLMVPGGKHNMDFYVEALAFPDTDFPGLITLTISLLDTSNLELPEAVVFQDSVVFRVAPWIMTPNTQPPQEVYACSIFENEDFLKSVTTLAMKAKCKLTICPEEENMDDQWMQDEMEIGYIQAPHKTLPVVFDSPRNRGLKEFPIKRVMGPDFGYVTRGPQTGGISGLDSFGNLEVSPPVTVRGKEYPLGRILFGDSCYPSNDSRQMHQALQDFLSAQQVQAPVKLYSDWLSVGHVDEFLSFVPAPDRKGFRLLLASPRSCYKLFQEQQNEGHGEALLFEGIKKKKQQKIKNILSNKTLREHNSFVERCIDWNRELLKRELGLAESDIIDIPQLFKLKEFSKAEAFFPNMVNMLVLGKHLGIPKPFGPVINGRCCLEEKVCSLLEPLGLQCTFINDFFTYHIRHGEVHCGTNVRRKPFSFKWWNMVP | – | – | – | – | – | – | 4 | ≤ 4 | –
PAD4^123/126/128 (R123S K126S K128S) (enzyme, human, UniProt Q9UM07 1-663, looked up, Full length human PAD4 (GenBank NM_012387) with R123S K126S K128S; source: E. coli BL21(DE3), purified (HisTrap FF, HiTrap Heparin HP, Superdex 200 SEC)) MAQGTLIRVTPEQPTHAVCVLGTLTQLDICSSAPEDCTSFSINASPGVVVDIAHGPPAKKKSTGSSTWPLDPGVEVTLTMKVASGSTGDQKVQISYYGPKTPPVKALLYLTGVEISLCADITSTGSVSPTRAVKDQRTWTWGPCGQGAILLVNCDRDNLESSAMDCEDDEVLDSEDLQDMSLMTLSTKTPKDFFTNHTLVLHVARSEMDKVRVFQATRGKLSSKCSVVLGPKWPSHYLMVPGGKHNMDFYVEALAFPDTDFPGLITLTISLLDTSNLELPEAVVFQDSVVFRVAPWIMTPNTQPPQEVYACSIFENEDFLKSVTTLAMKAKCKLTICPEEENMDDQWMQDEMEIGYIQAPHKTLPVVFDSPRNRGLKEFPIKRVMGPDFGYVTRGPQTGGISGLDSFGNLEVSPPVTVRGKEYPLGRILFGDSCYPSNDSRQMHQALQDFLSAQQVQAPVKLYSDWLSVGHVDEFLSFVPAPDRKGFRLLLASPRSCYKLFQEQQNEGHGEALLFEGIKKKKQQKIKNILSNKTLREHNSFVERCIDWNRELLKRELGLAESDIIDIPQLFKLKEFSKAEAFFPNMVNMLVLGKHLGIPKPFGPVINGRCCLEEKVCSLLEPLGLQCTFINDFFTYHIRHGEVHCGTNVRRKPFSFKWWNMVP | – | – | – | – | – | – | – | – | binds
PAD4^126/128/131/134/137 (K126S K128S R131S K134S R137S) (enzyme, human, UniProt Q9UM07 1-663, looked up, Full length human PAD4 (GenBank NM_012387) with K126S K128S R131S K134S R137S; source: E. coli BL21(DE3), purified (HisTrap FF, HiTrap Heparin HP, Superdex 200 SEC)) MAQGTLIRVTPEQPTHAVCVLGTLTQLDICSSAPEDCTSFSINASPGVVVDIAHGPPAKKKSTGSSTWPLDPGVEVTLTMKVASGSTGDQKVQISYYGPKTPPVKALLYLTGVEISLCADITRTGSVSPTSAVSDQSTWTWGPCGQGAILLVNCDRDNLESSAMDCEDDEVLDSEDLQDMSLMTLSTKTPKDFFTNHTLVLHVARSEMDKVRVFQATRGKLSSKCSVVLGPKWPSHYLMVPGGKHNMDFYVEALAFPDTDFPGLITLTISLLDTSNLELPEAVVFQDSVVFRVAPWIMTPNTQPPQEVYACSIFENEDFLKSVTTLAMKAKCKLTICPEEENMDDQWMQDEMEIGYIQAPHKTLPVVFDSPRNRGLKEFPIKRVMGPDFGYVTRGPQTGGISGLDSFGNLEVSPPVTVRGKEYPLGRILFGDSCYPSNDSRQMHQALQDFLSAQQVQAPVKLYSDWLSVGHVDEFLSFVPAPDRKGFRLLLASPRSCYKLFQEQQNEGHGEALLFEGIKKKKQQKIKNILSNKTLREHNSFVERCIDWNRELLKRELGLAESDIIDIPQLFKLKEFSKAEAFFPNMVNMLVLGKHLGIPKPFGPVINGRCCLEEKVCSLLEPLGLQCTFINDFFTYHIRHGEVHCGTNVRRKPFSFKWWNMVP | – | – | – | – | – | – | 4 | ≤ 4 | –
